Experimental data reported in patent US20260193375A1 (NORMUNITY, published 2026).
Changes are numbered by the printed parent chain.

T1: cell-surface anchored LY6K (human, UniProt Q17RY6 18-138)
T1 construct: the cell is named under assay; also called LY6K on target cells
T1 sequence: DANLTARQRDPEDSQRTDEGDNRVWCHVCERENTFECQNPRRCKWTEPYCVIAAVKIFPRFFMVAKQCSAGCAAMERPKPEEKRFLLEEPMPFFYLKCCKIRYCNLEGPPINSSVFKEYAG

T2: recombinant human LY6K (Wuxi) (human, UniProt Q17RY6 18-138)
T2 construct: Limits of the construct not clearly stated; also called Human LY6K (Wuxi LY^KGLY138(1-38TR)_8His)
T2 sequence: T1 sequence

T3: Ly6D
T3 chain: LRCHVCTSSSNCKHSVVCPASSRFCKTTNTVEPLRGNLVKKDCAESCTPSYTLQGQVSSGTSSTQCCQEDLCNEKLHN

T4: Ly6H
T4 chain: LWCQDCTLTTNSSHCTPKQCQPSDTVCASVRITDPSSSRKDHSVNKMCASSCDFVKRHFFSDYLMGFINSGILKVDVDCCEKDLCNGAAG

T5: human LY6E (R&D Systems) (human, UniProt Q16553 21-101, limits assumed)
T5 construct: also called hLY6E
T5 sequence (looked up): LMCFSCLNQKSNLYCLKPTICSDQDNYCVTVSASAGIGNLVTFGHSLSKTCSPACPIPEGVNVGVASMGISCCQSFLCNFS

T6: Human LY6K (R&D Systems) (human, UniProt Q17RY6 18-138, limits assumed)
T6 construct: Bought from R&D Systems, coated on ELISA plates; also called hLY6K
T6 sequence: T1 sequence

T7: hLY6K-mFc (human, UniProt Q17RY6 18-138)
T7 construct: not shown: mFc
T7 sequence: T1 sequence

T8: rLY6K-mFc (rat)
T8 chain: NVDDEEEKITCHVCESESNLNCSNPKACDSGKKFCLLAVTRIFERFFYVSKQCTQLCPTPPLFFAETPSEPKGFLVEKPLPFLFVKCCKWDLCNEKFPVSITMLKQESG

T9: hLY6K-his (human, UniProt Q17RY6 18-138, limits assumed)
T9 construct: not shown: his tag
T9 sequence: T1 sequence

B1: anti-LY6K antibody 3724 (antibody, V domains shown)
VH: QLQLQESGPGLVKPSETLSLTCTVSGGSINSKSYYWDWIRQPPGKGLEWIGNIYYSGSTYYNPSLKSRVTISVDTSKNQFSLKLSSVTATDTAVYYCARHRGVTVTTYWYFDLWGRGTLVTVSS
VL: EIVLTQSPDFQSVTPKEKVTITCRASQSIGNSLHWYQQKSDQSPKLLIKYVSQSFSGVPSRFSGSGSGTDFTLTINSLEAEDAATYYCHQSSDFPHTFGQGTKLEIK
B2: anti-LY6K antibody 3507 (antibody, V domains shown)
VH: EVQLVESGGGLVKPGGSLRLSCAASGFTFSSYSMNWVRQAPGKGLEWVSSISSSSDYIYYADSVKGRFTISRDDAKNSLYLQMNSLRAEDTAVYYCARGLEPNYYYYMDVWGKGTTVTVSS
VL: EIVMTQSPGTLSVSPGERATLSCRASQSVSSSYLAWYQQKPGQAPRLLIYGASTRATGIPARFSGSGSGTEFTLTISSLQSEDFAVYYCQQYNNWPLTFGGGTKVEIK
B3: anti-LY6K antibody 3522 (antibody, V domains shown)
VH: QVQLQQSGPGLVKPSQTLSLTCAISGDSVSSNSAAWNWIRQSPSRGLEWLGRTYYRSKWYNDYAVSVKSRITINPDTSKNQFSLQLNSVTPEDTAVYYCARECSGSYYRFDPWGQGTLVTVSS
VL: DIVMTQTPLSSPVTLGQPASISCRSSQSLVHSNGNTYLSWLQQRPGQPPRLLIYKISHRFSGVPDRFSGSGAGTDFTLKIRRVEAEDVGVYYCMQATQFPYTFGQGTKLEIK
B4: anti-LY6K antibody 3704 (antibody, V domains shown)
VH: EVQLVESGGGLVQPGRSLRLSCAASGFTFDDYAMHWVRQAPGKGLEWVSGISWKIITIGYADSVKGRFTISRDNVKNSLYLQMNSLRAEDTALYYCAKDSRTGLDYWGQGTLVTVSS
VL: DIQMTQSPSSLSASVGDRVTITCRASQTISSYLNWYQQKPGKAPKLLIYAASSLQSGVPSRFSGSGSGTDFTLTISSLQPEDFATYYCQQTYTAPLTFGPGTKVDIK
B5: anti-LY6K antibody 3520 (antibody, V domains shown)
VH: QVQLVQSGSELKKPGASVKVSCKASGYTFTLYAMNWVRQAPGQGLEWMGWINTNTGNPTYAQGFTGRFVFSLDTSVSTAYLQISSLKAEDTAVYYCARTNWNSWGQGTMVTVSS
VL: DIQMTQSPSSLSASVGDRVTITCQASQDISNYLHWFQQKPGKAPKLLIYDASNLETGVPSRFSGSGSGTDFTFTIFSLQPEDIATYYCQHYDNLPLTFGGGTKVEIK
B6: anti-LY6K antibody 3503 (antibody, V domains shown)
VH: EVQLVESGGGLVKPGGSLRLSCAASGFIFSSYSMNWVRQAPGKGLEWVSSISSSSSYIYYADSEKGRFTISRDNAKNSLYLQMNSLRAEDTAVYYCARQSTVVTSDYYYYYMDVWGKGTTVTVSS
VL: DIQMTQSPSSLSASVGDRVTITCRASQSISNYLNWYQQKPGKAPNLLIYAASSLQSGVPSRFSGSGSGTDFTLTISSLQPEDFATYYCQQSYSPPITFGQGTRLEIK
B7: anti-LY6K antibody 3082 (antibody, V domains shown)
VH: EVQLVESGGGLVKPGGSLRLSCAASGFTFSSSSMNWVRQAPGKGLEWVSSISRSSYYIYYADSVEGRFTISRDNAKNSLYLQMNSLRAEDTAVYYCAKIGSSSEGVEDYYYYYYMDVWGKGTTVTVSS
VL: B4 VL with T28N, S30N, Q89H, T91S, T93S, A94T, P100G, D105E
B8: anti-LY6K antibody 3746 (antibody, V domains shown)
VH: B6 VH
VL: B6 VL
B9: anti-LY6K antibody 3047 (antibody, V domains shown)
VH: EVQLVESGGGLVQPGGSLRLSCAASGFTFSSYSMNWVRQAPGKGLEWVSGINWNGGSTGYADSVKGRFTISRDNAKNSLYLQMNSLRAEDTALYYCARGRLFDYWGQGTLVTVSS
VL: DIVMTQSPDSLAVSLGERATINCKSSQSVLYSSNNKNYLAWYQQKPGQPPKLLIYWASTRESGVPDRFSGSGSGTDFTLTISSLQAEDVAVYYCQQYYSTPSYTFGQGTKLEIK

Each binder was assayed against T1, cell-surface anchored LY6K (assay: IHC, paraffin sections of 293 cells overexpressing LY6K).

Row | binding result | Binder
1 | no binding (tested: 5 ug/ml) | B1
2 | no binding (tested: 5 ug/ml) | B2
3 | no binding (tested: 5 ug/ml) | B3
4 | no binding (tested: 5 ug/ml) | B4

The binders below were run against T2, recombinant human LY6K (Wuxi) (assay: ELISA, LY6K coated at 2 ug/mL, HRP-labelled mAb titrated).

Row | EC50 [nM] | Binder
5 | 2.34 | B5
6 | 2.67 | B6
7 | 4.59 | B7
8 | 3.04 | B8

Each binder was assayed against T2, recombinant human LY6K (Wuxi) (assay: capture ELISA (MSD): antibody coated as capture at 2 µg/mL, recombinant human LY6K titrated, sulfo-tagged polyclonal anti-hLY6K (AF6648) for detection; EC50 is the LY6K concentration).

Row | EC50 [µg/mL] | Binder
9 | 0.536 | B5
10 | 0.064 | B6
11 | 0.0958 | B7

These binders were tested against T1, cell-surface anchored LY6K (assay: flow cytometry on target cells, MFI fitted in Prism; flow cytometry, live target cells, 4 degrees C).

Row | EC50 [nM] | Binder
12 | 3.61 | B5
13 | 0.576 | B6
14 | 3.21 | B8

Target: T3, Ly6D
Experiment: ELISA, antigen coated on the plate, antibody as human IgG1, anti-human F(ab)2 HRPO

Row | binding result | Binder
15 | no binding (tested: 10 µg/ml) | B5
16 | no binding (tested: 10 µg/ml) | B6
17 | no binding (tested: 10 µg/ml) | B7

Target: T4, Ly6H
Experiment: as above

Row | binding result | Binder
18 | no binding (tested: 10 µg/ml) | B5
19 | no binding (tested: 10 µg/ml) | B6
20 | no binding (tested: 10 µg/ml) | B7

Each binder was assayed against T5, human LY6E (R&D Systems) in the same assay as above.

Row | binding result | Binder
21 | no binding (tested: 10 µg/ml) | B5
22 | no binding (tested: 10 µg/ml) | B6
23 | no binding (tested: 10 µg/ml) | B7

These binders were tested against T5, human LY6E (R&D Systems) (assay: ELISA, coated antigen, IgG1 at 10 ug/ml).

Row | % of maximum of commercial anti-LY6K mAb on human LY6K [%] | Binder
24 | 3.9 | B1
25 | 1.7 | B9
26 | 1.7 | B2
27 | 4.3 | B3
28 | 2.8 | B5
29 | 2.9 | B6
30 | 2.1 | B7
31 | 1.2 | B8
32 | 3.2 | B4

Each binder was assayed against T6, Human LY6K (R&D Systems) (assay: ELISA, coated antigen, IgG1 at 10 ug/ml).

Row | % of maximum of commercial anti-LY6K mAb on human LY6K [%] | Binder
33 | 6.2 | B1
34 | 2.6 | B2
35 | 2.1 | B3
36 | 61.2 | B5
37 | 66.6 | B6
38 | 87.2 | B7
39 | 76.9 | B8
40 | 2.2 | B4

Each binder was assayed against T10, cynomolgus monkey LY6K (R&D Systems) (cynomolgus monkey) (assay: ELISA, coated antigen, IgG1 at 10 ug/ml).
T10 construct: also called cyLY6K

Row | % of maximum of commercial anti-LY6K mAb on human LY6K [%] | Binder
41 | 3.2 | B1
42 | 3 | B9
43 | 2.6 | B2
44 | 2.6 | B3
45 | 13.6 | B5
46 | 76.4 | B6
47 | 95.2 | B7
48 | 78.7 | B8
49 | 2 | B4

These binders were tested against T11, rat LY6K (R&D Systems) (rat) (assay: ELISA, coated antigen, IgG1 at 10 ug/ml).
T11 construct: also called rLY6K

Row | % of maximum of commercial anti-LY6K mAb on human LY6K [%] | Binder
50 | 3.3 | B1
51 | 1.5 | B9
52 | -1.2 | B2
53 | 0.7 | B3
54 | 0.7 | B5
55 | 0.7 | B6
56 | -0.5 | B7
57 | 3.1 | B8
58 | 0.6 | B4

The binders below were run against T7, hLY6K-mFc (assay: SPR (Carterra LSA), mAb captured on anti-human IgG-Fc, antigen as analyte).

Row | Kd [nM] | Binder | binding result
59 | 2720 | B9 | –
60 | – | B3 | no binding (tested: up to 1.266-6 M as printed)
61 | 0.373 | B5 | –
62 | 0.0553 | B6 | –
63 | 0.0444 | B7 | –
64 | 0.0362 | B8 | –

The binders below were run against cyLY6K-mFc (cynomolgus monkey) in the same assay as above.

Row | Kd [nM] | Binder
65 | 21600 | B9
66 | 117 | B5
67 | 0.197 | B6
68 | 0.103 | B7
69 | 0.216 | B8

Target: T8, rLY6K-mFc
Experiment: as above

Row | Kd [nM] | Binder
70 | 129 | B9
71 | 240 | B7

The binders below were run against T9, hLY6K-his in the same assay as above.

Row | Kd [nM] | Binder | binding result
72 | – | B3 | no binding (tested: up to 1.266-6 M as printed)
73 | 31.9 | B5 | –
74 | 3.49 | B6 | –
75 | 2.06 | B7 | –
76 | 2.5 | B8 | –
